Laboratory results as given in patent publication US20250066503A1, “CELL INJURY INDUCING THERAPEUTIC DRUG FOR USE IN CANCER THERAPY” (CHUGAI SEIYAKU KABUSHIKI KAISHA, priority 2016, published 2025).

Target: T1, human GPC3 (human, UniProt P51654 25-563)
T1 construct: range 25-563; soluble analyte; also called soluble human GPC3; glypican 3
Assay: SPR

T1 sequence (P51654 25-563 limits assumed): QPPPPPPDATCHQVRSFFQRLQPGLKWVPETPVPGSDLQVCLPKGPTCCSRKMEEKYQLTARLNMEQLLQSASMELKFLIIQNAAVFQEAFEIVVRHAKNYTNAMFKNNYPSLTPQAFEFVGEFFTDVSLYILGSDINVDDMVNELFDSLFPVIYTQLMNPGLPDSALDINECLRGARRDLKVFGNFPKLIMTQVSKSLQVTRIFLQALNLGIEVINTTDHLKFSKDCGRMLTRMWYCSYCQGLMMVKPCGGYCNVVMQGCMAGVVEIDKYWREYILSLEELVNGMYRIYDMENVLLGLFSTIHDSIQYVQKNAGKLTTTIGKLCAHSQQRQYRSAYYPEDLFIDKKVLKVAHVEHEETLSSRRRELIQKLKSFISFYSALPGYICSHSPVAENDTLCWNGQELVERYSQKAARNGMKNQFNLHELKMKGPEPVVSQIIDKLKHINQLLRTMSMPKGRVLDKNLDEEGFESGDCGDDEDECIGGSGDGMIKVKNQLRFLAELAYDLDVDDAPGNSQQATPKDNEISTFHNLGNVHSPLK

B1: GCH094-G1dh/none-Hi-Kn010G3/L0201-k0 (antibody, V domains shown)
VH: QVQLVQSGAEVKKPGASVTVSCKASGYTFTDYEMHWVRQAPGEGLEWMGAIDGETPDTAYSEKFKGRVTLTADKSTSTAYMELSSLTSEDTAVYYCTRFYSYTYWGQGTLVTVSS
VL: DIVMTQSPLSLPVTPGEPASISCRSSQPPVHSNRNTYLHWYQQKPGQAPRLLIYKVSNRFSGVPDRFSGSGSGTDFTLKISRVEAEDVGVYYCGQGTQVPYTFGQGTKLEIKR
notes: one-arm
- Kd: 1.17 nM

B2: GCH098-G1dh/none-Hi-Kn010G3/L0000-k0 (antibody, V domains shown)
VH: QVQLVQSGAEVKKPGASVTVSCKASGYTFTDYEMHWVRQAPGEGLEWMGAIDGPTPDTAYSEKFKGRVTLTADKSTSTAYMELSSLTSEDTAVYYCTRFYSYTYWGQGTLVTVSS
VL: DIVMTQSPLSLPVTPGEPASISCRSSQSLVHSNRNTYLHWYQQKPGQAPRLLIYKVSNRFSGVPDRFSGSGSGTDFTLKISRVEAEDVGVYYCGQGTQVPYTFGQGTKLEIKR
notes: one-arm
- Kd: 1.77 nM

B3: GCH098-G1dh/none-Hi-Kn010G3/L0011-k0 (antibody, V domains shown)
VH: QVQLVQSGAEVKKPGASVTVSCKASGYTFTDYEMHWVRQAPGEGLEWMGAIDGPTPDTAYSEKFKGRVTLTADKSTSTAYMELSSLTSEDTAVYYCTRFYSYTYWGQGTLVTVSS
VL: DIVMTQSPLSLPVTPGEPASISCRSSQPLVHSNRNTYLHWYQQKPGQAPRLLIYKVSNRFSGVPDRFSGSGSGTDFTLKISRVEAEDVGVYYCGQGTQVPYTFGQGTKLEIKR
notes: one-arm
- Kd: 0.802 nM

B4: GCH098-G1dh/none-Hi-Kn010G3/L0201-k0 (antibody, V domains shown)
VH: QVQLVQSGAEVKKPGASVTVSCKASGYTFTDYEMHWVRQAPGEGLEWMGAIDGPTPDTAYSEKFKGRVTLTADKSTSTAYMELSSLTSEDTAVYYCTRFYSYTYWGQGTLVTVSS
VL: DIVMTQSPLSLPVTPGEPASISCRSSQPPVHSNRNTYLHWYQQKPGQAPRLLIYKVSNRFSGVPDRFSGSGSGTDFTLKISRVEAEDVGVYYCGQGTQVPYTFGQGTKLEIKR
notes: one-arm
- Kd: 0.111 nM

B5: GCH099-G1dh/none-Hi-Kn010G3/L0000-k0 (antibody, V domains shown)
VH: QVQLVQSGAEVKKPGASVTVSCKASGYTFTDYEMHWVRQAPGEGLEWMGAIDGWTPDTAYSEKFKGRVTLTADKSTSTAYMELSSLTSEDTAVYYCTRFYSYTYWGQGTLVTVSS
VL: DIVMTQSPLSLPVTPGEPASISCRSSQSLVHSNRNTYLHWYQQKPGQAPRLLIYKVSNRFSGVPDRFSGSGSGTDFTLKISRVEAEDVGVYYCGQGTQVPYTFGQGTKLEIKR
notes: one-arm
- Kd: 4.24 nM

B6: GCH099-G1dh/none-Hi-Kn010G3/L0011-k0 (antibody, V domains shown)
VH: QVQLVQSGAEVKKPGASVTVSCKASGYTFTDYEMHWVRQAPGEGLEWMGAIDGWTPDTAYSEKFKGRVTLTADKSTSTAYMELSSLTSEDTAVYYCTRFYSYTYWGQGTLVTVSS
VL: DIVMTQSPLSLPVTPGEPASISCRSSQPLVHSNRNTYLHWYQQKPGQAPRLLIYKVSNRFSGVPDRFSGSGSGTDFTLKISRVEAEDVGVYYCGQGTQVPYTFGQGTKLEIKR
notes: one-arm
- Kd: 2.78 nM

B7: GCH099-G1dh/none-Hi-Kn010G3/L0201-k0 (antibody, V domains shown)
VH: QVQLVQSGAEVKKPGASVTVSCKASGYTFTDYEMHWVRQAPGEGLEWMGAIDGWTPDTAYSEKFKGRVTLTADKSTSTAYMELSSLTSEDTAVYYCTRFYSYTYWGQGTLVTVSS
VL: DIVMTQSPLSLPVTPGEPASISCRSSQPPVHSNRNTYLHWYQQKPGQAPRLLIYKVSNRFSGVPDRFSGSGSGTDFTLKISRVEAEDVGVYYCGQGTQVPYTFGQGTKLEIKR
notes: one-arm
- Kd: 1.29 nM

B8: GCH100-G1dh/none-Hi-Kn010G3/L0000-k0 (antibody, V domains shown)
VH: QVQLVQSGAEVKKPGASVTVSCKASGYTFTDYEMHWVRQAPGEGLEWMGAIDGYTPDTAYSEKFKGRVTLTADKSTSTAYMELSSLTSEDTAVYYCTRFYSYTYWGQGTLVTVSS
VL: DIVMTQSPLSLPVTPGEPASISCRSSQSLVHSNRNTYLHWYQQKPGQAPRLLIYKVSNRFSGVPDRFSGSGSGTDFTLKISRVEAEDVGVYYCGQGTQVPYTFGQGTKLEIKR
notes: one-arm
- Kd: 5.39 nM

B9: GCH100-G1dh/none-Hi-Kn010G3/L0011-k0 (antibody, V domains shown)
VH: QVQLVQSGAEVKKPGASVTVSCKASGYTFTDYEMHWVRQAPGEGLEWMGAIDGYTPDTAYSEKFKGRVTLTADKSTSTAYMELSSLTSEDTAVYYCTRFYSYTYWGQGTLVTVSS
VL: DIVMTQSPLSLPVTPGEPASISCRSSQPLVHSNRNTYLHWYQQKPGQAPRLLIYKVSNRFSGVPDRFSGSGSGTDFTLKISRVEAEDVGVYYCGQGTQVPYTFGQGTKLEIKR
notes: one-arm
- Kd: 3.81 nM

B10: GCH100-G1dh/none-Hi-Kn010G3/L0201-k0 (antibody, V domains shown)
VH: QVQLVQSGAEVKKPGASVTVSCKASGYTFTDYEMHWVRQAPGEGLEWMGAIDGYTPDTAYSEKFKGRVTLTADKSTSTAYMELSSLTSEDTAVYYCTRFYSYTYWGQGTLVTVSS
VL: DIVMTQSPLSLPVTPGEPASISCRSSQPPVHSNRNTYLHWYQQKPGQAPRLLIYKVSNRFSGVPDRFSGSGSGTDFTLKISRVEAEDVGVYYCGQGTQVPYTFGQGTKLEIKR
notes: one-arm
- Kd: 1.37 nM

B11: H0610-G1dh/none-Hi-Kn010G3/L0011-k0 (antibody, V domains shown)
VH: QVQLVQSGAEVKKPGASVKVSCKASGYTFTDYEMHWIRQPPGQGLEWIGAIDGKTPDTAYSQKFKGRVTLTADKSTSTAYMELSSLTSEDTAVYYCTRFYSYTYWGQGTLVTVSS
VL: DIVMTQSPLSLPVTPGEPASISCRSSQPLVHSNRNTYLHWYQQKPGQAPRLLIYKVSNRFSGVPDRFSGSGSGTDFTLKISRVEAEDVGVYYCGQGTQVPYTFGQGTKLEIKR
notes: one-arm
- Kd: 2.76 nM

B12: H0610-G1dh/none-Hi-Kn010G3/L0201-k0 (antibody, V domains shown)
VH: QVQLVQSGAEVKKPGASVKVSCKASGYTFTDYEMHWIRQPPGQGLEWIGAIDGKTPDTAYSQKFKGRVTLTADKSTSTAYMELSSLTSEDTAVYYCTRFYSYTYWGQGTLVTVSS
VL: DIVMTQSPLSLPVTPGEPASISCRSSQPPVHSNRNTYLHWYQQKPGQAPRLLIYKVSNRFSGVPDRFSGSGSGTDFTLKISRVEAEDVGVYYCGQGTQVPYTFGQGTKLEIKR
notes: one-arm
- Kd: 1.13 nM

B13: H0610-G1dh/none-Hi-Kn010G3/L0203-k0 (antibody, V domains shown)
VH: QVQLVQSGAEVKKPGASVKVSCKASGYTFTDYEMHWIRQPPGQGLEWIGAIDGKTPDTAYSQKFKGRVTLTADKSTSTAYMELSSLTSEDTAVYYCTRFYSYTYWGQGTLVTVSS
VL: DIVMTQSPLSLPVTPGEPASISCRSSQSPVHSNRNTYIHWYQQKPGQAPRLLIYKVSNRFSGVPDRFSGSGSGTDFTLKISRVEAEDVGVYYCGQGTQVPYTFGQGTKLEIKR
notes: one-arm
- Kd: 2.11 nM

B14: H0610-G1dh/none-Hi-Kn010G3/L0204-k0 (antibody, V domains shown)
VH: QVQLVQSGAEVKKPGASVKVSCKASGYTFTDYEMHWIRQPPGQGLEWIGAIDGKTPDTAYSQKFKGRVTLTADKSTSTAYMELSSLTSEDTAVYYCTRFYSYTYWGQGTLVTVSS
VL: DIVMTQSPLSLPVTPGEPASISCRSSQSPVHSNRNTYLHWYQQKPGQAPRLLIYKVSNRFRGVPDRFSGSGSGTDFTLKISRVEAEDVGVYYCGQGTQVPYTFGQGTKLEIKR
notes: one-arm
- Kd: 0.727 nM

B15: H0610-G1dh/none-Hi-Kn010G3/L0206-k0 (antibody, V domains shown)
VH: QVQLVQSGAEVKKPGASVKVSCKASGYTFTDYEMHWIRQPPGQGLEWIGAIDGKTPDTAYSQKFKGRVTLTADKSTSTAYMELSSLTSEDTAVYYCTRFYSYTYWGQGTLVTVSS
VL: DIVMTQSPLSLPVTPGEPASISCRSSQSPVHSNRNTYLHWYQQKPGQAPRLLIYKVSNRFSGVPDRFSGSGSGTDFTLKISRVEAEDVGVYYCYQGTQVPYTFGQGTKLEIKR
notes: one-arm
- Kd: 0.865 nM

B16: H0610-G1dh/none-Hi-Kn010G3/L0208-k0 (antibody, V domains shown)
VH: QVQLVQSGAEVKKPGASVKVSCKASGYTFTDYEMHWIRQPPGQGLEWIGAIDGKTPDTAYSQKFKGRVTLTADKSTSTAYMELSSLTSEDTAVYYCTRFYSYTYWGQGTLVTVSS
VL: DIVMTQSPLSLPVTPGEPASISCRSSQSPVHSNRNTYLHWYQQKPGQAPRLLIYKVSNRFWGVPDRFSGSGSGTDFTLKISRVEAEDVGVYYCYQGTQVPYTFGQGTKLEIKR
notes: one-arm
- Kd: 0.53 nM

B17: H0610-G1dh/none-Hi-Kn010G3/L0209-k0 (antibody, V domains shown)
VH: QVQLVQSGAEVKKPGASVKVSCKASGYTFTDYEMHWIRQPPGQGLEWIGAIDGKTPDTAYSQKFKGRVTLTADKSTSTAYMELSSLTSEDTAVYYCTRFYSYTYWGQGTLVTVSS
VL: DIVMTQSPLSLPVTPGEPASISCRSSQSPVHSNRNTYIHWYQQKPGQAPRLLIYKVSNRFSGVPDRFSGSGSGTDFTLKISRVEAEDVGVYYCYQGTQVPYTFGQGTKLEIKR
notes: one-arm
- Kd: 1.12 nM

B18: H0610-G1dh/none-Hi-Kn010G3/L0211-k0 (antibody, V domains shown)
VH: QVQLVQSGAEVKKPGASVKVSCKASGYTFTDYEMHWIRQPPGQGLEWIGAIDGKTPDTAYSQKFKGRVTLTADKSTSTAYMELSSLTSEDTAVYYCTRFYSYTYWGQGTLVTVSS
VL: DIVMTQSPLSLPVTPGEPASISCRSSQPPVHSNRNTYLHWYQQKPGQAPRLLIYKVSNRFSGVPDRFSGSGSGTDFTLKISRVEAEDVGVYYCYQGTQVPYTFGQGTKLEIKR
notes: one-arm
- Kd: 0.647 nM

B19: H0610-G1dh/none-Hi-Kn010G3/L0212-k0 (antibody, V domains shown)
VH: QVQLVQSGAEVKKPGASVKVSCKASGYTFTDYEMHWIRQPPGQGLEWIGAIDGKTPDTAYSQKFKGRVTLTADKSTSTAYMELSSLTSEDTAVYYCTRFYSYTYWGQGTLVTVSS
VL: DIVMTQSPLSLPVTPGEPASISCRPSQSPVHSNRNTYLHWYQQKPGQAPRLLIYKVSNRFSGVPDRFSGSGSGTDFTLKISRVEAEDVGVYYCYQGTQVPYTFGQGTKLEIKR
notes: one-arm
- Kd: 0.994 nM

B20: H0610-G1dh/none-Hi-Kn010G3/L0222-k0 (antibody, V domains shown)
VH: QVQLVQSGAEVKKPGASVKVSCKASGYTFTDYEMHWIRQPPGQGLEWIGAIDGKTPDTAYSQKFKGRVTLTADKSTSTAYMELSSLTSEDTAVYYCTRFYSYTYWGQGTLVTVSS
VL: DIVMTQSPLSLPVTPGEPASISCRSSQSPVHSNRNTYIQWYQQKPGQAPRLLIYKVSNRFSGVPDRFSGSGSGTDFTLKISRVEAEDVGVYYCYQGTQVPYTFGQGTKLEIKR
notes: one-arm
- Kd: 0.00014 nM

B21: H0610-G1dh/none-Hi-Kn010G3/L0000vk1-k0 (antibody, V domains shown)
VH: QVQLVQSGAEVKKPGASVKVSCKASGYTFTDYEMHWIRQPPGQGLEWIGAIDGKTPDTAYSQKFKGRVTLTADKSTSTAYMELSSLTSEDTAVYYCTRFYSYTYWGQGTLVTVSS
VL: DIQMTQSPSSLSASVGDRVTITCRSSQSLVHSNRNTYLHWYQQKPGKAPKLLIYKVSNRFSGVPSRFSGSGSGTDFTFTISSLQPEDIATYYCGQGTQVPYTFGQGTKVEIK
notes: one-arm
- Kd: 2.16 nM
